Data reported in patent US10597674B2, “HPPD variants and methods of use” (BASF Agricultural Solutions Seed, US LLC, priority 2015, dated 2020).
Like-named read-outs stand apart in the source and are kept apart here.

Assays:
[1] = system: HPPD polypeptides (wild-type SEQ ID NO:1 and mutants); settings: high substrate concentration; for Residual activity: kapp normalized to kapp without inhibitor; for Residual turnover: total change in signal normalized to no inhibitor
[2] = system: transgenic T1 soybean events; assay: Field trials of T1 soybean events, leaf damage eight days after application; assay type: in vivo; settings: wild-type or segregated T1 soybean plants without tolerant polypeptide; 210 g/ha isoxaflutole or 150 g/ha Cmpd. 1; eight days
Summary of the method: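 T1 soybean events carrying the HPPD inhibitor tolerant polypeptide, field-grown and sprayed with isoxaflutole 210 g/ha or Cmpd 150 g/ha. Leaf damage scored eight days after application; good tolerance defined as ≤15% damaged leaf area, reported as event frequency.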

[3] = in the presence of Cmpd. 1, 15 μM inhibitor
[4] = in the presence of Cmpd. 2, 15 μM inhibitor
[5] = in the presence of diketonitrile (DKN), 60 μM inhibitor
[6] = in the presence of mesotrione (MST), 60 μM inhibitor

In the case of `CSc1c(C(F)(F)F)ccc(C(=O)Nc2nnnn2C)c1Cl` [Cmpd. 1, 2-chloro-3-(methylsulfanyl)-N-(1-methyl-1H-tetrazol-5-yl)-4-(trifluoromethyl)benzamide, reference compound], the Residual activity [1, 3] is reported as 6%, the Residual turnover [1, 3] is reported as 6% and the Residual activity [1, 4] is reported as 8%. It also gave a Residual turnover [1, 4] of 8%, a Residual activity [1, 5] of 7% and a Residual turnover [1, 5] of 8%. It also gave a Residual activity [1, 6] of 6%, a Residual turnover [1, 6] of 8% and a leaf damage [2] of 100%.
